The values below come from article PMC3934934, “The Self-Interaction of a Nodavirus Replicase Is Enhanced by Mitochondrial Membrane Lipids” (PLoS ONE, 2014).

For data set [1], the target named is T1, MBP-protA fragment aa 481–659 (Wuhan nodavirus (WhNV), UniProt Q3KSM3 481-659).
T1 construct: source: E. coli strain TB1, purified (amylose resin); not shown: MBP, N-terminal, kept
T1 sequence: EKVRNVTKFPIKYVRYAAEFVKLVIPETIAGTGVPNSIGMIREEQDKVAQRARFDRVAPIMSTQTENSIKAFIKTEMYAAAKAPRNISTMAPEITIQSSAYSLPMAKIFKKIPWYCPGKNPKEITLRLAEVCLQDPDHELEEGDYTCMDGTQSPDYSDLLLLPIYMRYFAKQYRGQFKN
The data set can be described thus: pull-down; MBP fusion protein (1 µM) held on amylose resin, His-tagged protein (1 µM) in vitro translated in rabbit reticulocyte lysate; room temperature, 4 hrs; no lipids; Western blot with anti-His; signals given as % of FL to FL protein A self-interaction. The conditions noted are these: one partner purified.

Data set [2] deals with the molecule itself. The data set can be described thus: cross-linking; MBP-tagged protein in cross-linking buffer (10 mM HEPES pH 7.4, 50 mM MgCl2, 1 mM DTT, 1% glycerol, 0.03% glutaraldehyde), then 10% SDS-PAGE.
Data set [3] deals with T2, MBP-protA fragment aa 255–480 (Wuhan nodavirus (WhNV), UniProt Q3KSM3 255-480).
T2 construct: source: E. coli strain TB1, purified (amylose resin); not shown: MBP, N-terminal, kept
T2 sequence: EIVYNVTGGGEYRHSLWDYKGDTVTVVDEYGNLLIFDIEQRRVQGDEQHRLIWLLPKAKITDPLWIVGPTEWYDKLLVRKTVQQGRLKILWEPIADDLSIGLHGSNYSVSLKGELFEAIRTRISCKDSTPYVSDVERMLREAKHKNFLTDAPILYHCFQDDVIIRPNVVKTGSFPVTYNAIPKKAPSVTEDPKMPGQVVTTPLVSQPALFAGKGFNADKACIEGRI
In words: pull-down; MBP fusion protein (1 µM) held on amylose resin, His-tagged protein (1 µM) in vitro translated in rabbit reticulocyte lysate; room temperature, 4 hrs; no lipids; Western blot with anti-His; signals given as % of FL to FL protein A self-interaction. To be noted: one partner purified.

Data set [4] addresses T3, MBP-protA fragment aa 1–254 (Wuhan nodavirus (WhNV), UniProt Q3KSM3 1-254).
T3 construct: also called 1–254 MBP/protA; source: E. coli strain TB1, purified (amylose resin); not shown: MBP, N-terminal, kept
T3 sequence: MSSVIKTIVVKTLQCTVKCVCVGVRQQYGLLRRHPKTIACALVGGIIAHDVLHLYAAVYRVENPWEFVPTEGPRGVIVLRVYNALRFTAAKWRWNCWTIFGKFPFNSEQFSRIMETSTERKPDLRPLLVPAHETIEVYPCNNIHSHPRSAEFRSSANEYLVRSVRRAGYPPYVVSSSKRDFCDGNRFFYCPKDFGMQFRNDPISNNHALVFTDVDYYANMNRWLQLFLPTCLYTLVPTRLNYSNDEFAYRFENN
The data set is described as above. The conditions noted are these: one partner purified.

B1: His-protA fragment aa 481–659, in vitro translated (domain or fragment)
chain: EKVRNVTKFPIKYVRYAAEFVKLVIPETIAGTGVPNSIGMIREEQDKVAQRARFDRVAPIMSTQTENSIKAFIKTEMYAAAKAPRNISTMAPEITIQSSAYSLPMAKIFKKIPWYCPGKNPKEITLRLAEVCLQDPDHELEEGDYTCMDGTQSPDYSDLLLLPIYMRYFAKQYRGQFKN
notes: source: in vitro translated in nuclease-treated rabbit reticulocyte lysates
Take B1: the “homotypic interaction, % of FL to FL protein A self-interaction” value (“homotypic interaction, % of FL” for short) in data set [1] is 2%.

B2: MBP-tagged full-length (FL) WhNV protein A (natural protein)
chain: MSSVIKTIVVKTLQCTVKCVCVGVRQQYGLLRRHPKTIACALVGGIIAHDVLHLYAAVYRVENPWEFVPTEGPRGVIVLRVYNALRFTAAKWRWNCWTIFGKFPFNSEQFSRIMETSTERKPDLRPLLVPAHETIEVYPCNNIHSHPRSAEFRSSANEYLVRSVRRAGYPPYVVSSSKRDFCDGNRFFYCPKDFGMQFRNDPISNNHALVFTDVDYYANMNRWLQLFLPTCLYTLVPTRLNYSNDEFAYRFENNEIVYNVTGGGEYRHSLWDYKGDTVTVVDEYGNLLIFDIEQRRVQGDEQHRLIWLLPKAKITDPLWIVGPTEWYDKLLVRKTVQQGRLKILWEPIADDLSIGLHGSNYSVSLKGELFEAIRTRISCKDSTPYVSDVERMLREAKHKNFLTDAPILYHCFQDDVIIRPNVVKTGSFPVTYNAIPKKAPSVTEDPKMPGQVVTTPLVSQPALFAGKGFNADKACIEGRIEKVRNVTKFPIKYVRYAAEFVKLVIPETIAGTGVPNSIGMIREEQDKVAQRARFDRVAPIMSTQTENSIKAFIKTEMYAAAKAPRNISTMAPEITIQSSAYSLPMAKIFKKIPWYCPGKNPKEITLRLAEVCLQDPDHELEEGDYTCMDGTQSPDYSDLLLLPIYMRYFAKQYRGQFKNLYNQIYKQRATTSSGVPYNPEMTIRSGSSITTHAGTLNNAFNIYAALRDMGYDETTAWDKVGAVFGDDSLNANHQGEFHSYIEHVTKVLGMRYKSNLRERGQPVLFLGRYFVDPITSYDSFADPMRTIGKLHATANKNVSVEQGAANKAHGYITTDSKTPIIGAWARRVLEITKKKFKNGTGEEQYRCSNAWPQKDEAAIRAAMAAVLEVDEAQLIAQNEAVLKVNSLDQFPVVFDTYYDHKQLAEVDGQLVGTDLHIKEEDERQPETSIDSVPSTGPPPSNGDPNAGGKPTDGPSKGKRKVKGRRPRTAGDPATLRLTDAGSSRRVKPPRKLRPEAKRGGRPIETLVFKNSSLS
notes: also called MBP-protA; 1–1014 MBP/protA; source: E. coli strain TB1, purified (amylose resin); not shown: MBP, N-terminal, kept
As to B2, the “stoichiometry N” value in data set [2] was determined as 2.

B3: His-protA fragment aa 255–480, in vitro translated (domain or fragment)
chain: EIVYNVTGGGEYRHSLWDYKGDTVTVVDEYGNLLIFDIEQRRVQGDEQHRLIWLLPKAKITDPLWIVGPTEWYDKLLVRKTVQQGRLKILWEPIADDLSIGLHGSNYSVSLKGELFEAIRTRISCKDSTPYVSDVERMLREAKHKNFLTDAPILYHCFQDDVIIRPNVVKTGSFPVTYNAIPKKAPSVTEDPKMPGQVVTTPLVSQPALFAGKGFNADKACIEGRI
notes: as for B1
For the molecule B3, the “homotypic interaction, % of FL” value in data set [3] stood at 55%.

B4: His-protA fragment aa 1–254, in vitro translated (domain or fragment)
chain: MSSVIKTIVVKTLQCTVKCVCVGVRQQYGLLRRHPKTIACALVGGIIAHDVLHLYAAVYRVENPWEFVPTEGPRGVIVLRVYNALRFTAAKWRWNCWTIFGKFPFNSEQFSRIMETSTERKPDLRPLLVPAHETIEVYPCNNIHSHPRSAEFRSSANEYLVRSVRRAGYPPYVVSSSKRDFCDGNRFFYCPKDFGMQFRNDPISNNHALVFTDVDYYANMNRWLQLFLPTCLYTLVPTRLNYSNDEFAYRFENN
notes: also called 1–254 His/protA; wt protein A fragment aa 1–254; source: in vitro translated in nuclease-treated rabbit reticulocyte lysates
B4: the “homotypic interaction, % of FL” value in data set [4] amounted to 73%.
